For the assay, the target named is hClpX E285A (human) (UniProt O76031).

“hClpX E285A (from UniProt O76031 57-633) (enzyme)” registered a stoichiometry N of 6.

As a reminder, the stoichiometry N is the number of molecules, sites or subunits per partner or assembly.

The values are drawn from publication PMC12852852.
